Experimental findings from patent US20100144617 are described below.

For data set [1], the target named is T1, Native porcine OXM, P01274.
T1 chain: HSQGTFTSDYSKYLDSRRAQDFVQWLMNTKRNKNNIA

In a further data set the target is T2, OXM2 (not fully specified).
T2 chain: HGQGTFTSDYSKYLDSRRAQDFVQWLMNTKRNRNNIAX

B1: recombinant soluble human DP-IV (protein)
chain: SRKTYTLTDYLKNTYRLKLYSLRWISDHEYLYKQENNILVFNAEYGNSSVFLENSTFDEFGHSINDYSISPDGQFILLEYNYVKQWRHSYTASYDIYDLNKRQLITEERIPNNTQWVTWSPVGHKLAYVWNNDIYVKIEPNLPSYRITWTGKEDIIYNGITDWVYEEEVFSAYSALWWSPNGTFLAYAQFNDTEVPLIEYSFYSDESLQYPKTVRVPYPKAGAVNPTVKFFVVNTDSLSSVTNATSIQITAPASMLIGDHYLCDVTWATQERISLQWLRRIQNYSVMDICDYDESSGRWNCLVARQHIEMSTTGWVGRFRPSEPHFTLDGNSFYKIISNEEGYRHICYFQIDKKDCTFITKGTWEVIGIEALTSDYLYYISNEYKGMPGGRNLYKIQLSDYTKVTCLSCELNPERCQYYSVSFSKEAKYYQLRCSGPGLPLYTLHSSVNDKGLRVLEDNSALDKMLQNVQMPSKKLDFIILNETKFWYQMILPPHFDKSKKYPLLLDVYAGPCSQKADTVFRLNWATYLASTENIIVASFDGRGSGYQGDKIMHAINRRLGTFEVEDQIEAARQFSKMGFVDNKRIAIWGWSYGGYVTSMVLGSGSGVFKCGIAVAPVSRWEYYDSVYTERYMGLPTPEDNLDHYRNSTVMSRAENFKQVEYLLIHGTADDNVHFQQSAQISKALVDVGVDFQAMWYTDEDHGIASSTAHQHIYTHMSHFIKQCFSLP
As for B1, the “loss of potency at hGLP-1R (cAMP HTRF) after preincubation with DP-IV” value (in data set [1]; with OXM2) was “loss of potency due to preincubation of the peptides with DP-IV” each time.
